Data on 3 molecules can be found in paper doi:10.1101/2024.01.16.575974, “Structural insights into peptidoglycan hydrolysis by the FtsEX system in Escherichia coli during cell division” (bioRxiv, 2024).

B3: Escherichia coli EnvC (EcoEnvCΔ34) (natural protein, UniProt P37690 35-419, looked up)
chain: DERDQLKSIQADIAAKERAVRQKQQQRASLLAQLKKQEEAISEATRKLRETQNTLNQLNKQIDEMNASIAKLEQQKAAQERSLAAQLDAAFRQGEHTGIQLILSGEESQRGQRLQAYFGYLNQARQETIAQLKQTREEVAMQRAELEEKQSEQQTLLYEQRAQQAKLTQALNERKKTLAGLESSIQQGQQQLSELRANESRLRNSIARAEAAAKARAEREAREAQAVRDRQKEATRKGTTYKPTESEKSLMSRTGGLGAPRGQAFWPVRGPTLHRYGEQLQGELRWKGMVIGASEGTEVKAIADGRVILADWLQGYGLVVVVEHGKGDMSLYGYNQSALVSVGSQVRAGQPIALVGSSGGQGRPSLYFEIRRQGQAVNPQPWLGR

Data set [1] deals with the molecule itself. Description: cryo-EM structure; FtsE^E163QX in peptidiscs incubated with EnvC, 2 mM ATP-Mg2+, 8 min at 37°C before freezing.
Data set [2] concerns the target B3. The description is as above. The following applies: both partners purified.
Data set [3] concerns the molecule itself. The data set is described as follows: cryo-EM structure; WT EcoFtsEX in peptidiscs, 3 mM ATPγS, 2 mM Mg2+, incubated 8 min at 37°C before freezing.
Data set [4] deals with T1, Escherichia coli FtsEX complex (wild type) in peptidiscs (Escherichia coli (str. K-12, MG1655), UniProt P0A9R7 1-222; P0AC30 1-352).
T1 sequence (looked up) 1: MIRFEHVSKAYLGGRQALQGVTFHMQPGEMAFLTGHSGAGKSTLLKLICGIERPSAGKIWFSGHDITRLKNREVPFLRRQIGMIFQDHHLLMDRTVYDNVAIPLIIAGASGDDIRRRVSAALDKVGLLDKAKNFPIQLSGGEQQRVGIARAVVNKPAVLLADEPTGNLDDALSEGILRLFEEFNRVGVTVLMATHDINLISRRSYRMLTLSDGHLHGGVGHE
T1 sequence (looked up) 2: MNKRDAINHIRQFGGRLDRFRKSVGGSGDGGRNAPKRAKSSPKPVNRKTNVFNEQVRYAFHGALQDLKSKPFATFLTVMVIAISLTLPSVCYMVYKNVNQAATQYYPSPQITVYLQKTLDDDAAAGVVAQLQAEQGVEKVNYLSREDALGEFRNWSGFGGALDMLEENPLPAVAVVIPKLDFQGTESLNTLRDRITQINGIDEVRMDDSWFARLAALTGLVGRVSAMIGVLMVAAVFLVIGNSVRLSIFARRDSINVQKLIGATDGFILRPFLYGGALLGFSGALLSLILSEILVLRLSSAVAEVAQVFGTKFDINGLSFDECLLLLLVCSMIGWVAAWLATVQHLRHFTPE
Description: cell-based or functional assay.

B1: Escherichia coli FtsE E163Q mutant, His-tagged (natural protein, Escherichia coli (str. K-12, MG1655), UniProt P0A9R7 1-222, looked up)
chain: MIRFEHVSKAYLGGRQALQGVTFHMQPGEMAFLTGHSGAGKSTLLKLICGIERPSAGKIWFSGHDITRLKNREVPFLRRQIGMIFQDHHLLMDRTVYDNVAIPLIIAGASGDDIRRRVSAALDKVGLLDKAKNFPIQLSGGEQQRVGIARAVVNKPAVLLADQPTGNLDDALSEGILRLFEEFNRVGVTVLMATHDINLISRRSYRMLTLSDGHLHGGVGHE
notes: FtsE, Escherichia coli str; K-12 MG1655, full length, with E163Q (cannot hydrolyse ATP); Made with the QuikChange kit on pTD68 [PT7::his6-FtsEX]; also called FtsE mutant (E163Q); ATPase mutant; source: E. coli BL21(DE3) pLysS, co-expressed with FtsX, purified (DDM, TALON, peptidiscs, SEC) with ATP; not shown: His6, N-terminal, kept
For the molecule B1, the binding result in data set [1] is “binds”.

B2: Escherichia coli FtsX, full length (natural protein, Escherichia coli (str. K-12, MG1655), UniProt P0AC30 1-352, looked up)
chain: MNKRDAINHIRQFGGRLDRFRKSVGGSGDGGRNAPKRAKSSPKPVNRKTNVFNEQVRYAFHGALQDLKSKPFATFLTVMVIAISLTLPSVCYMVYKNVNQAATQYYPSPQITVYLQKTLDDDAAAGVVAQLQAEQGVEKVNYLSREDALGEFRNWSGFGGALDMLEENPLPAVAVVIPKLDFQGTESLNTLRDRITQINGIDEVRMDDSWFARLAALTGLVGRVSAMIGVLMVAAVFLVIGNSVRLSIFARRDSINVQKLIGATDGFILRPFLYGGALLGFSGALLSLILSEILVLRLSSAVAEVAQVFGTKFDINGLSFDECLLLLLVCSMIGWVAAWLATVQHLRHFTPE
notes: FtsX, Escherichia coli str; K-12 MG1655, full length; residues 1-52 not resolved in the maps; Two copies stand in the FtsEX complex; also called EcoFtsX; TMD
In the case of B2, the binding result in data set [2] and in data set [3] was “binds” throughout.

Take B3: the “fold increase of Vmax of ATP hydrolysis with EnvC over FtsEX alone” value in data set [4] is roughly 2.2 fold.
